Test results published in patent publication US20080233103.

System: N-formyl-Met-Ala

Question: What does the source list for “recombinant histidine-tagged Mycobacterium tuberculosis peptide deformylase (mPDF), wild-type construct from pET-mPDF”?
Answer: Michalis-Menton constant (Km): 4.1 ± 0.2 mM; catalytic efficiency: 1220 ± 6 M⁻¹ s⁻¹; velocity maxima (Vmax): 13.3±0.7 µmoles/min/mg protein
